Test results: publication PMC5921574 (Molecular Biology of the Cell, 2018)

Molecular target: actin filaments (F-actin) from rabbit skeletal muscle (rabbit, UniProt P68135 1-377)
Experiment: co-sedimentation

B1: LEV-11A(E234K), recombinant (natural protein)
chain: MASDAIKKKMQAMKIEKDNALDRADAAEEKVRQITEKLERVEEELRDTQKKMTQTGDDLDKAQEDLSAATSKLEEKEKTVQEAEAEVASLNRRMTLLEEELERAEERLKIATEKLEEATHNVDESERVRKVMENRSLQDEERANTVEAQLKEAQLLAEEADRKYDEVARKLAMVEADLERAEERAEAGENKIVELEEELRVVGNNLKSLEVSEEKALQREDSYEEQIRTVSSRLKKAETRAEFAERSVQKLQKEVDRLEDELVHEKERYKTISEELDSTFQELSGY
fold decrease in affinity against wild-type LEV-11A: ~3 fold
